Measured values: patent publication US5760204

How the values were obtained:
[1] = molecular target: human interleukin 5 receptor 2 HSIL5R2 (human); assay: Scatchard analysis, 125I-labeled human IL-5 on COS7 cells transfected with pCAGGS.HSIL5R2
[2] = molecular target: human interleukin 5 receptor HSIL5R (human); assay: Scatchard analysis, 125I-labeled human IL-5 on COS7 cells transfected with pCAGGS.HSIL5R
[3] = molecular target: high affinity IL-5R on Y16 cells (mouse) (UniProt P21183); assay: Scatchard analysis, 35S-labeled IL-5 on Y16 cells, high affinity sites
[4] = molecular target: human interleukin 5 receptor HSIL5R (human); assay: Scatchard analysis, 35S-labeled mouse IL-5 on COS7 cells transfected with pCAGGS.HSIL5R
[5] = molecular target: human interleukin 5 receptor 2 HSIL5R2 (human); assay: Scatchard analysis, 35S-labeled mouse IL-5 on COS7 cells transfected with pCAGGS.HSIL5R2
[6] = molecular target: low affinity IL-5R on Y16 cells (mouse) (UniProt P21183); assay: Scatchard analysis, 35S-labeled IL-5 on Y16 cells, low affinity sites
[7] = molecular target: murine interleukin 5 receptor encoded by pIL-5R.8 (membrane bound, low affinity IL-5R) (mouse); assay: Scatchard analysis, 35S-labeled IL-5 on COS7 cells transfected with pIL-5R.8 (CDM8 vector)
[8] = molecular target: murine interleukin 5 receptor encoded by pIL-5R.8 (membrane bound, low affinity IL-5R) (mouse); assay: Scatchard analysis, 35S-labeled IL-5 on COS7 cells transfected with pCAGGS.5R.8

human interleukin 5 (from UniProt P05113) (ligand)
Kd [1]: 0.41 nM
Kd [2]: 0.59 nM

murine interleukin 5 (from UniProt P04401) (ligand)
Kd [3]: 0.02 nM
Kd [4]: 0.25 nM
Kd [5]: 0.355 nM
Kd [6]: 5.1 nM
Kd [7]: 2 nM
Kd [8]: 9.6 nM
